The assay deals with T1, human CD20 on Jurkat cells (human) (UniProt P11836).
T1 sequence: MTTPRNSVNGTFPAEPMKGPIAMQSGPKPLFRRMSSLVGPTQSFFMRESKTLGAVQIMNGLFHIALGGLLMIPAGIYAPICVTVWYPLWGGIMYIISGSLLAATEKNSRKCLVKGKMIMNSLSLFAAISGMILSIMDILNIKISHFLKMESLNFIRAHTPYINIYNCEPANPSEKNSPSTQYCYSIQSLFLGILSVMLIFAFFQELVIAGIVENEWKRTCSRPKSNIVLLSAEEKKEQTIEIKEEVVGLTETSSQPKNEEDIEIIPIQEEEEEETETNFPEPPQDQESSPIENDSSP
The assay is described as follows: cell-based or functional assay.

Substance casirivimab + imdevimab displayed a Max ADCP (%), MDM donor #1, Jurkat/hCD20 cells of 15.5%; a Max ADCP (%), MDM donor #2, Jurkat/hCD20 cells of 15.1%; a Max cytotoxicity (%), ADCC, NK donor #1, Jurkat/hCD20 cells of 0.8%; a Max cytotoxicity (%), ADCC, NK donor #2, Jurkat/hCD20 cells of 4.8%. Further, the Max cytotoxicity (%), ADCC, NK donor #3, Jurkat/hCD20 cells amounted to 0%.

Source of the values: patent publication US20260069689A1.
